Laboratory results: article PMC6657595, “A DNA-Binding Protein Tunes Septum Placement during Bacillus subtilis Sporulation”

T1: RefZ E117D-His6 (Bacillus subtilis 168, UniProt O34970 1-207, E117D)
T1 sequence: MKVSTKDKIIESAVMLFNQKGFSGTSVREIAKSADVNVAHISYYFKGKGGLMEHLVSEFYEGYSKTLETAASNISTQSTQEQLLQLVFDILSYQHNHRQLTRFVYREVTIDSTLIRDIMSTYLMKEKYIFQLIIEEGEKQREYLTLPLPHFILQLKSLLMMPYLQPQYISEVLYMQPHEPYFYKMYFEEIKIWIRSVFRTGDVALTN

T2: RefZ R102S-His6 (Bacillus subtilis 168, UniProt O34970 1-207, R102S)
T2 sequence: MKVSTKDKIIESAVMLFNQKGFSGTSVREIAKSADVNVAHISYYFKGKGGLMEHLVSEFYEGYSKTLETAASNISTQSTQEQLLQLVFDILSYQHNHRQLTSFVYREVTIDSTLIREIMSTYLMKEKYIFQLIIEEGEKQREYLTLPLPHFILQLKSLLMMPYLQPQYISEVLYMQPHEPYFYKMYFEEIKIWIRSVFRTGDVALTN

T3: RefZ E179K-His6 (Bacillus subtilis 168, UniProt O34970 1-207, E179K)
T3 sequence: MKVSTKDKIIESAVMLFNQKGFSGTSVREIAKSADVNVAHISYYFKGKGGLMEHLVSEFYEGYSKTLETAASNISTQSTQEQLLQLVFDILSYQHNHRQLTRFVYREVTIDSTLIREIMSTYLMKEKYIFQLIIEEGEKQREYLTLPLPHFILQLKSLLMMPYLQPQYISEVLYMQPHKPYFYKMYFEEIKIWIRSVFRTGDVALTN

T4: RefZ E53K-His6 (Bacillus subtilis 168, UniProt O34970 1-207, E53K)
T4 sequence: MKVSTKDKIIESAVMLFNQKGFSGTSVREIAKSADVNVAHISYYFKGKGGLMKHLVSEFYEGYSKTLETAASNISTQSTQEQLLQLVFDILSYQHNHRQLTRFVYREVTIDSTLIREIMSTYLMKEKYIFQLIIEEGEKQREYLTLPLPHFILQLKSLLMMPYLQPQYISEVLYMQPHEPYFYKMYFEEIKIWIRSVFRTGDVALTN

T5: RefZ R116S-His6 (Bacillus subtilis 168, UniProt O34970 1-207, R116S)
T5 sequence: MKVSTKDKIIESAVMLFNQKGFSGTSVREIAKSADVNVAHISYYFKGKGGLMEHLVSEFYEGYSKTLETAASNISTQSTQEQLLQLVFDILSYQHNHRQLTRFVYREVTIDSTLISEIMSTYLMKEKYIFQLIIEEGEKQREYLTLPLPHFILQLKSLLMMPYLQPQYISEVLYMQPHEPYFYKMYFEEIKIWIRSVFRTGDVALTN

T6: RefZ E61K-His6 (Bacillus subtilis 168, UniProt O34970 1-207, E61K)
T6 sequence: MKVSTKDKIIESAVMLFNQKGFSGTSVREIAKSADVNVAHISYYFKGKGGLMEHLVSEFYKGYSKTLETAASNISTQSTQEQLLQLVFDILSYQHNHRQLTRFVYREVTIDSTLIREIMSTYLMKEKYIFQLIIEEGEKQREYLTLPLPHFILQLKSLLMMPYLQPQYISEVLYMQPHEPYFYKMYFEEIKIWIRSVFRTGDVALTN

T7: RefZ R102C-His6 (Bacillus subtilis 168, UniProt O34970 1-207, R102C)
T7 sequence: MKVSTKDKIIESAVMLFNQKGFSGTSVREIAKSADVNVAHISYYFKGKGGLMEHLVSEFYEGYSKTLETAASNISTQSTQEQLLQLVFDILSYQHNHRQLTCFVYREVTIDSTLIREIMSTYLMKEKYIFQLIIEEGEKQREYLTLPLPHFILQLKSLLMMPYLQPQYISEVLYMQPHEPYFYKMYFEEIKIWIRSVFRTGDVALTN

T8: RefZ-His6 (WT) (Bacillus subtilis PY79, UniProt O34970 1-207)
T8 sequence: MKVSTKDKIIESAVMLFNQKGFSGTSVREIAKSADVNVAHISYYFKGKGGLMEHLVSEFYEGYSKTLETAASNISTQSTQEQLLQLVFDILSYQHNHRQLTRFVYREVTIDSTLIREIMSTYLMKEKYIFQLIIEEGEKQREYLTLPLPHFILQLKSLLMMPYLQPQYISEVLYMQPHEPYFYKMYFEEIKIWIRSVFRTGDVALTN

T9: RefZ E117G-His6 (Bacillus subtilis 168, UniProt O34970 1-207, E117G)
T9 sequence: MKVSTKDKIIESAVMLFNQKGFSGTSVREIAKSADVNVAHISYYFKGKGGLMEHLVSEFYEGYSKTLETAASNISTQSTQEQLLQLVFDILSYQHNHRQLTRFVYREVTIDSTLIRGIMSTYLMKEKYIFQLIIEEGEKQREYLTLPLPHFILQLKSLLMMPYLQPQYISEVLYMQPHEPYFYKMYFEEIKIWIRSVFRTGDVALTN


Tests used:
[1] = target: RefZ-His6 (wild-type RefZ) (Bacillus subtilis); assay: crystal structure; RefZ-His6 at ~5 mg/ml, dialyzed into 50 mM Tris-HCl pH 8.5, 300 mM KCl with RBM dsDNA added (4:1 RefZ:DNA); hanging-drop vapor diffusion at 16°C; no DNA seen in the crystal; one molecule in the asymmetric unit of a P4(1)2(1)2 lattice; 2.6 Å
RefZ E117D-His6 = target: T1, RefZ E117D-His6; assay: BLI; Kd within 2-fold of WT; 150 mM KCl, 10 mM Tris-HCl pH 8.0; EMSA 10 nM DNA, 30 min, gel at room temperature; BLI 800 nM protein, 30 C; conditions: protein: recombinant; tags: C-terminal His6 (pET-24b NheI/XhoI); chain copies: 2; label: 5' biotin on S27 strand; blunt
RefZ R102S-His6 = target: T2, RefZ R102S-His6; assay: as above; conditions: protein: recombinant; tags: C-terminal His6 (pET-24b NheI/XhoI); chain copies: 2; label: 5' biotin on S27 strand; blunt
RefZ E179K-His6 = target: T3, RefZ E179K-His6; assay: as above; conditions: protein: recombinant; tags: C-terminal His6 (pET-24b NheI/XhoI); chain copies: 2; label: 5' biotin on S27 strand; blunt
RefZ E53K-His6 = target: T4, RefZ E53K-His6; assay: as above; conditions: protein: recombinant; tags: C-terminal His6 (pET-24b NheI/XhoI); chain copies: 2; label: 5' biotin on S27 strand; blunt
RefZ R116S-His6 = target: T5, RefZ R116S-His6; assay: as above; conditions: protein: recombinant; tags: C-terminal His6 (pET-24b NheI/XhoI); chain copies: 2; label: 5' biotin on S27 strand; blunt
RefZ E61K-His6 = target: T6, RefZ E61K-His6; assay: as above; conditions: protein: recombinant; tags: C-terminal His6 (pET-24b NheI/XhoI); chain copies: 2; label: 5' biotin on S27 strand; blunt
RefZ R102C-His6 = target: T7, RefZ R102C-His6; assay: as above; conditions: protein: recombinant; tags: C-terminal His6 (pET-24b NheI/XhoI); chain copies: 2; label: 5' biotin on S27 strand; blunt
RefZ-His6 (WT) = target: T8, RefZ-His6 (WT); assay: BLI; Kd value only in Fig. 6 image; reference; 150 mM KCl, 10 mM Tris-HCl pH 8.0; EMSA 10 nM DNA, 30 min, gel at room temperature; BLI 800 nM protein, 30 C; conditions: protein: recombinant; tags: C-terminal His6 (pET-24b NheI/XhoI); chain copies: 2; label: 5' biotin on S27 strand; blunt
RefZ E117G-His6 = target: T9, RefZ E117G-His6; assay: BLI; within 2-fold of WT, P = 0.025; 150 mM KCl, 10 mM Tris-HCl pH 8.0; EMSA 10 nM DNA, 30 min, gel at room temperature; BLI 800 nM protein, 30 C; conditions: protein: recombinant; tags: C-terminal His6 (pET-24b NheI/XhoI); chain copies: 2; label: 5' biotin on S27 strand; blunt

Row | stoichiometry N [1] | Molecule | binding result (RefZ E117D-His6) | binding result (RefZ R102S-His6) | binding result (RefZ E179K-His6) | binding result (RefZ E53K-His6) | binding result (RefZ R116S-His6) | binding result (RefZ E61K-His6) | binding result (RefZ R102C-His6) | binding result (RefZ-His6 (WT)) | binding result (RefZ E117G-His6)
1 | 2 | RefZ-His6 (wild-type RefZ) (natural protein) |  |  |  |  |  |  |  |  | 
2 |  | RBML1 41-bp (dsDNA) DNA 1: GCCTTTTCGTTTTGAACAAACGTTTGATTAAAACAAATAGC DNA 2: GCTATTTGTTTTAATCAAACGTTTGTTCAAAACGAAAAGGC | binds | binds | binds | binds | binds | binds | binds | binds | binds
